Test results reported in patent publication US20230181528A1, “COMPOSITIONS AND METHODS FOR TREATING NEOPLASIA” (The Broad Institute, Inc., priority 2020, published 2023).

Tests used:
[1] = test system: SNU213 pancreatic cancer cell line (VPS4B^loss); assay: Interferon dose-response curves with VPS4A suppression (CellTiter-Glo); assay type: cell-based, human; details: SNU213 shVPS4A-2, co-treatment with 1 μM doxycycline, interferon titration for last 3 days
Procedure: (§1) To determine whether interferon treatment cooperate with VPS4A suppression, pancreatic cancer cell lines (KP4, PANC0403 and SNU213) stably expressing the doxycycline-inducible RNAi system against VPS4A (shVPS4A-2) were plated in white-walled 96-well plates at 100˜400 cells per well in 100 μL of 10% FBS-supplemented RPMI-1640 with L-glutamine with or without 1 μM doxycycline. Plates were incubated at 37° C., 5% CO2 for 3 days. […] At the same time, the doxycycline was refreshed. Cells were then incubated for an additional 3 days at 37° C., 5% CO2. Afterwards, 100 μL of premixed CellTiter-Glo (Promega) reagent was added to the wells to lyse cells by shaking the plates at 500 RPM for 10 minutes at room temperature. Luminescence for each well was then measured using an Envision plate reader (Perkin Elmer) to measure cell viability using the ATP-based readout. Luminescence signal for each well was normalized to the average signal from 6 wells treated without interferon for each cell line. These normalized values were then visualized using GraphPad Prism 8.3.0 fitted with a four-parameter log-based non-linear dose-response curve.

[2] = test system: PANC0403 pancreatic cancer cell line (VPS4B^loss); assay: as above; assay type: cell-based, human; details: PANC0403 shVPS4A-2, co-treatment with 1 μM doxycycline, interferon titration for last 3 days
Procedure: as §1

VPS4B^neutral cell lines = assay: CRISPR-based cell viability assay with CellTiter-Glo (sgRNAs targeting VPS4A); design: species or system human; details: YAPC; seven-day CellTiter-Glo; scale 0 (cutting controls) to −1 (pan-essential sgRNAs); read from FIG. 2A
Procedure: For FIG. 2A, CellTiter-Glo viability assays were performed with stably expressing SpCas9 cell lines in 96 well plates. Cells were seeded and infected with sgRNA expressing lentivirus in wells on day 0, and selected with puromycin 24 hours later. Cell titer-Glo viability was read out 7 days after plating and infection. Prior to CellTiter-Glo viability assays, all cell lines were individually optimized for the assay including titrating both cell seeding density and volume of virus used for infection. All lentiviral preps for each sgRNA described below were batch controlled and titrated on three different cell lines representing cell lines with low, medium and high transduction efficiency. Optimal cell seeding densities and viral volumes for infections were then used for all subsequent viability assays using CRISPR. […]
Each assay was required to meet specific quality control metrics. […] For quality control of raw luminescence from CellTiter-Glo, infection efficiency (puro/no puro selection for each sgRNA) was required to be at least 80%, and all replicate wells had to be within 2 standard deviations of the mean for that sgRNA infection. […] SpCas9 activity from each cell line was also required to be greater than 50%, determined by the percent viability reduction of the average of the 3 pan-essential genes (sgPOLR2D, sgSF3B1 and sgKIF11) to negative controls (sgLacZ, sgChr2 and sgAAVS1). […]

VPS4 ATPase activity = assay: In vitro assay of ATPase activity of recombinant VPS4A and VPS4B constructs; assay type: biochemical; details: for fold change in turnover number between VPS4A and VPS4B construct with the same tag: VPS4B construct vs VPS4A construct; for Turnover (preliminary turnover number): recombinant tagged constructs, ATPase activity
Source text: Active oligomers of VPS4A and VPS4B were achieved through recombinant production and an in vitro assay was used to measure ATPas activity. […] Hcp1 (also known as His6 tag (SEQ ID NO: 32)) and FL (also known as FLAG tag) were used.

## interferon-γ: purified recombinant human interferon-γ (PeproTech)
[1]
  sensitization to VPS4A suppression (6-day cell viability): strongly sensitized
[2]
  sensitization to VPS4A suppression (6-day cell viability): strongly sensitized

## sgVPS4A2: sgRNA targeting VPS4A intron/exon junction, 5′-GGGCCGCACGAAGTACCTGG (SEQ ID NO: 40) (listed as DNA, chemistry not given here)
VPS4B^neutral cell lines
  VPS4A dependency score (normalized viability effect): 0.3-0.4

## VPS4B-FL: recombinant VPS4B construct with FL (FLAG) tag
VPS4 ATPase activity
  fold change in turnover number between VPS4A and VPS4B construct with the same tag: > 1 fold
  Turnover (preliminary turnover number): 21 s⁻¹

## sgVPS4A3: sgRNA targeting VPS4A intron/exon junction, 5′-ATTGTTATTCCCCACCCCTG (SEQ ID NO: 41) (listed as DNA, chemistry not given here)
VPS4B^neutral cell lines
  VPS4A dependency score (normalized viability effect): 0.25-0.35

## VPS4B-Hcp1: recombinant VPS4B construct with Hcp1 tag
VPS4 ATPase activity
  fold change in turnover number between VPS4A and VPS4B construct with the same tag: > 600 fold
  Turnover (preliminary turnover number): 33280 s⁻¹

B1: VPS4A-Hcp1: recombinant VPS4A construct with Hcp1 tag (protein, UniProt Q9UN37 1-437, looked up)
Vacuolar protein …: MTTSTLQKAIDLVTKATEEDKAKNYEEALRLYQHAVEYFLHAIKYEAHSDKAKESIRAKCVQYLDRAEKLKDYLRSKEKHGKKPVKENQSEGKGSDSDSEGDNPEKKKLQEQLMGAVVMEKPNIRWNDVAGLEGAKEALKEAVILPIKFPHLFTGKRTPWRGILLFGPPGTGKSYLAKAVATEANNSTFFSVSSSDLMSKWLGESEKLVKNLFELARQHKPSIIFIDEVDSLCGSRNENESEAARRIKTEFLVQMQGVGNNNDGTLVLGATNIPWVLDSAIRRRFEKRIYIPLPEEAARAQMFRLHLGSTPHNLTDANIHELARKTEGYSGADISIIVRDSLMQPVRKVQSATHFKKVCGPSRTNPSMMIDDLLTPCSPGDPGAMEMTWMDVPGDKLLEPVVCMSDMLRSLATTRPTVNADDLLKVKKFSEDFGQES
modifications: Hcp1 tag
VPS4 ATPase activity
  Turnover (preliminary turnover number): 53 s⁻¹

B2: VPS4A-FL: recombinant VPS4A construct with FL (FLAG) tag (protein, UniProt Q9UN37 1-437, looked up)
Vacuolar protein …: B1 Vacuolar protein …
modifications: FLAG tag
VPS4 ATPase activity
  Turnover (preliminary turnover number): 10 s⁻¹
